Test results published in patent US10087225B2, “Formulation of MK2 inhibitor peptides” (MOERAE MATRIX, INC., priority 2015, dated 2018).

Key:
Test in all cases: Kinase Profiling Assay
Type in all cases: biochemical
[1] = molecular target: T1, NLK(h) (Homo sapiens, UniProt Q9UBE8)
T1 sequence (Q9UBE8 1-527): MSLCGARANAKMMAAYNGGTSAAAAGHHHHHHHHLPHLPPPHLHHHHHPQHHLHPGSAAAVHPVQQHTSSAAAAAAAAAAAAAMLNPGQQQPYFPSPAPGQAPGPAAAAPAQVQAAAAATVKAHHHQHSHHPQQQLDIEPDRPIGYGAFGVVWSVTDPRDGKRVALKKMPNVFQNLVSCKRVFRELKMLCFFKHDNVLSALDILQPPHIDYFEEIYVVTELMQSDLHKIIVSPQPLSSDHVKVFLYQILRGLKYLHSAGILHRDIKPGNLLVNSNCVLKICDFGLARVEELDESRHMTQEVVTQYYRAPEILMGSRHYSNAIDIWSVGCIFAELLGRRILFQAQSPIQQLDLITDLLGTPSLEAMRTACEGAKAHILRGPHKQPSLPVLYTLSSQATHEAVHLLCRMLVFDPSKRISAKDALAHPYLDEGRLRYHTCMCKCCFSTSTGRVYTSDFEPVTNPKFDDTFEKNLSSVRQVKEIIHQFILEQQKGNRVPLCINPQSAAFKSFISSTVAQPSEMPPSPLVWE

[2] = molecular target: T2, JAK3(h) (Homo sapiens, UniProt P52333)
T2 sequence (P52333 1-1124): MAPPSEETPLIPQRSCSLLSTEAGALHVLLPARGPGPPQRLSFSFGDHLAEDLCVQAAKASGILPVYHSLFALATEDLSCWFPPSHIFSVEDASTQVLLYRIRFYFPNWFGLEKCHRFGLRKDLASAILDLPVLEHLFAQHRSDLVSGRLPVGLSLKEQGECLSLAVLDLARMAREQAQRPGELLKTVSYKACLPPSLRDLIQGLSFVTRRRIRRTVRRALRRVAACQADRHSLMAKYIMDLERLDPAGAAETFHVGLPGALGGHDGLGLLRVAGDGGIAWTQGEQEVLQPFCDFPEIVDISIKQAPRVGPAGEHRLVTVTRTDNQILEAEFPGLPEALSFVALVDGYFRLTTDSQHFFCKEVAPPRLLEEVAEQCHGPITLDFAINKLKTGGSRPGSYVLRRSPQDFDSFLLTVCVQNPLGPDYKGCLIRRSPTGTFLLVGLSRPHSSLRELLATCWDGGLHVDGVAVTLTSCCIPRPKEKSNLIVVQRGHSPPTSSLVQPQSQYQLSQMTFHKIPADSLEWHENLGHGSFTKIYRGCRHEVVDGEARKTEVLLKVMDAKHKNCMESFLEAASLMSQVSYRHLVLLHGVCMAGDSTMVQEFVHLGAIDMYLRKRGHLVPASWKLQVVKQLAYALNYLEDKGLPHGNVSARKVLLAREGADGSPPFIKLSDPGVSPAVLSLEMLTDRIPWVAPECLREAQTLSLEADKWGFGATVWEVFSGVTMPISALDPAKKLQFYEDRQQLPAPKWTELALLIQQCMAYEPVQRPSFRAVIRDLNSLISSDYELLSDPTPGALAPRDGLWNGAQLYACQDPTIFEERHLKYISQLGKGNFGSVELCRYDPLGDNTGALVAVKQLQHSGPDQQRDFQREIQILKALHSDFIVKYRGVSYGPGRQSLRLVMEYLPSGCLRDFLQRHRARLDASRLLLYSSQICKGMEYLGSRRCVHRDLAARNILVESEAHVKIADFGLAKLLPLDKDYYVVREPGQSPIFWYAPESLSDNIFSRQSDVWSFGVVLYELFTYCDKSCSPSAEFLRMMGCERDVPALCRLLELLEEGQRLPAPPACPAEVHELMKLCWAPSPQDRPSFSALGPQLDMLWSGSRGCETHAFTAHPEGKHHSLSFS

[3] = molecular target: MINK(h) (Homo sapiens, UniProt Q8N4C8)
Sequence of MINK(h) (Q8N4C8 whole entry): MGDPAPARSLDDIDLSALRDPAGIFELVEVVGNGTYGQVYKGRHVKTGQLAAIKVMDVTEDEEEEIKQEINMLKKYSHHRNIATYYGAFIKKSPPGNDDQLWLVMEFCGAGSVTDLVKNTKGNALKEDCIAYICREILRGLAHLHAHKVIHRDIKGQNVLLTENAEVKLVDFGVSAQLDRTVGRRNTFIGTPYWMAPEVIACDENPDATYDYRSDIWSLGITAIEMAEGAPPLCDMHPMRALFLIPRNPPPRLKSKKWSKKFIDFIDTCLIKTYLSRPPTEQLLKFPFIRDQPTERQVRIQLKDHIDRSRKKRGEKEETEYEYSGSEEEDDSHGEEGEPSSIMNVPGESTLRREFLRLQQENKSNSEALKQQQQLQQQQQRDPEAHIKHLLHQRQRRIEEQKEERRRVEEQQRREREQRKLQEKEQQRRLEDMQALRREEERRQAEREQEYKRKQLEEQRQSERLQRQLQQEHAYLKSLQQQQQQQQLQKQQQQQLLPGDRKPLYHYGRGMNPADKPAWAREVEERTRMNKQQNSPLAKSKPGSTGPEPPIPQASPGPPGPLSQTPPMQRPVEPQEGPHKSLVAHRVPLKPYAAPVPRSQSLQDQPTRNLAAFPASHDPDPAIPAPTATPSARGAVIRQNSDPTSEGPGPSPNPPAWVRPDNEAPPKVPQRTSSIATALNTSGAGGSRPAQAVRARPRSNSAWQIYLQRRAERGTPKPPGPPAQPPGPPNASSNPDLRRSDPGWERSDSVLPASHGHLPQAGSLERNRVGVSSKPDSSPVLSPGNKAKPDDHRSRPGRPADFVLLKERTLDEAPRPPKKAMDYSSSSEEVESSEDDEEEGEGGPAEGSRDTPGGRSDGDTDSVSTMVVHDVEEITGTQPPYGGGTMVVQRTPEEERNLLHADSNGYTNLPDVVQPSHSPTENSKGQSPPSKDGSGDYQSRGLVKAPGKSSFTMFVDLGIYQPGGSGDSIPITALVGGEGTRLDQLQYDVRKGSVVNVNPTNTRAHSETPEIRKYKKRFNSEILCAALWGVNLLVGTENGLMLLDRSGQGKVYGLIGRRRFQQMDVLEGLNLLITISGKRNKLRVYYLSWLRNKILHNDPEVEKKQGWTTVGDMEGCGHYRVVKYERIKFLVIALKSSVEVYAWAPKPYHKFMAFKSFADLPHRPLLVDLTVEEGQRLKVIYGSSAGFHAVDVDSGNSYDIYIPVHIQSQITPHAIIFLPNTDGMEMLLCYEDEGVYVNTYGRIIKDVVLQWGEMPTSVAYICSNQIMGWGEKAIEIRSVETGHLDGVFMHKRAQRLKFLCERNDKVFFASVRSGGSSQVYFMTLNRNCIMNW

[4] = molecular target: PKA(h) (Homo sapiens, UniProt P17612); settings: 100 μM
[5] = molecular target: CDK5/p35(h) (Homo sapiens, UniProt Q00535); settings: 100 μM
Sequence of CDK5/p35(h) (Q00535 whole entry): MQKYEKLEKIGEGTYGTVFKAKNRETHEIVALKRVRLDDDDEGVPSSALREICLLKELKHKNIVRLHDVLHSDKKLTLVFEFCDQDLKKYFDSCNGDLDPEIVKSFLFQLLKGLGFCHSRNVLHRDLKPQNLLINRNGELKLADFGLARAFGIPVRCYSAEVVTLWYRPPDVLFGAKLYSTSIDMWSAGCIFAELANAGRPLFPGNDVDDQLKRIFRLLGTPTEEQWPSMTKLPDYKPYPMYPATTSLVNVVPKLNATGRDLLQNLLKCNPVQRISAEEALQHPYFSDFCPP
Sequence of CDK5/p35(h) (Q15078 whole entry partner): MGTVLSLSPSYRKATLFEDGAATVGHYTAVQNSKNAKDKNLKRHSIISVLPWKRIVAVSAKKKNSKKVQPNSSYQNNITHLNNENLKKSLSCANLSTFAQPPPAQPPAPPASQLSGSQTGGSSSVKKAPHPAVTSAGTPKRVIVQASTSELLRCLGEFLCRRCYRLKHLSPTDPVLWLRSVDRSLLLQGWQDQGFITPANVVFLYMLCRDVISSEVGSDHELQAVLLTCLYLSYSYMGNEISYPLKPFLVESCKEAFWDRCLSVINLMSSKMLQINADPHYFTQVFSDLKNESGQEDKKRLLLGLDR

[6] = molecular target: FGFR2(h) (Homo sapiens, UniProt P21802); settings: 100 μM
[7] = molecular target: NEK7(h) (Homo sapiens, UniProt Q8TDX7); settings: 100 μM
Sequence of NEK7(h) (Q8TDX7 whole entry): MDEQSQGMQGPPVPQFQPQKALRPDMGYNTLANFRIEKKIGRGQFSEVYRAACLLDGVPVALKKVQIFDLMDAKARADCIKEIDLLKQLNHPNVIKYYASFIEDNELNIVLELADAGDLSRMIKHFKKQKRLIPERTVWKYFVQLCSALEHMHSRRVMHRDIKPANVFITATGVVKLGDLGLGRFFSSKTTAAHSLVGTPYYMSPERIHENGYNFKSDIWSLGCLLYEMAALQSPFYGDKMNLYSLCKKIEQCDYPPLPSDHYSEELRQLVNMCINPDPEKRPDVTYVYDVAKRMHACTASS

[8] = molecular target: mTOR(h) (Homo sapiens, UniProt P42345); settings: 100 μM
[9] = molecular target: CDK5/p25(h) (Homo sapiens, UniProt Q00535); settings: 100 μM
Sequence of CDK5/p25(h) (Q00535 whole entry): as the sequence (Q00535 whole entry) above
Sequence of CDK5/p25(h) (Q15078 99-307 partner limits assumed): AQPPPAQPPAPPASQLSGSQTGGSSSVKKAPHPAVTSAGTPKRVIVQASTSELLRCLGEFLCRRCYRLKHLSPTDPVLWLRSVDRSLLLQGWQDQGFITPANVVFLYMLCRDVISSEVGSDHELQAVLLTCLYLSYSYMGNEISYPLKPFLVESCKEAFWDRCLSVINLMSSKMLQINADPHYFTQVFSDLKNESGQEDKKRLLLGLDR

[10] = molecular target: Pim-3(h) (Homo sapiens, UniProt Q86V86); settings: 100 μM
[11] = molecular target: IR(h) (Homo sapiens, UniProt P06213); settings: 100 μM
[12] = molecular target: MSK2(h) (Homo sapiens, UniProt O75676); settings: 100 μM
Sequence of MSK2(h) (O75676 whole entry): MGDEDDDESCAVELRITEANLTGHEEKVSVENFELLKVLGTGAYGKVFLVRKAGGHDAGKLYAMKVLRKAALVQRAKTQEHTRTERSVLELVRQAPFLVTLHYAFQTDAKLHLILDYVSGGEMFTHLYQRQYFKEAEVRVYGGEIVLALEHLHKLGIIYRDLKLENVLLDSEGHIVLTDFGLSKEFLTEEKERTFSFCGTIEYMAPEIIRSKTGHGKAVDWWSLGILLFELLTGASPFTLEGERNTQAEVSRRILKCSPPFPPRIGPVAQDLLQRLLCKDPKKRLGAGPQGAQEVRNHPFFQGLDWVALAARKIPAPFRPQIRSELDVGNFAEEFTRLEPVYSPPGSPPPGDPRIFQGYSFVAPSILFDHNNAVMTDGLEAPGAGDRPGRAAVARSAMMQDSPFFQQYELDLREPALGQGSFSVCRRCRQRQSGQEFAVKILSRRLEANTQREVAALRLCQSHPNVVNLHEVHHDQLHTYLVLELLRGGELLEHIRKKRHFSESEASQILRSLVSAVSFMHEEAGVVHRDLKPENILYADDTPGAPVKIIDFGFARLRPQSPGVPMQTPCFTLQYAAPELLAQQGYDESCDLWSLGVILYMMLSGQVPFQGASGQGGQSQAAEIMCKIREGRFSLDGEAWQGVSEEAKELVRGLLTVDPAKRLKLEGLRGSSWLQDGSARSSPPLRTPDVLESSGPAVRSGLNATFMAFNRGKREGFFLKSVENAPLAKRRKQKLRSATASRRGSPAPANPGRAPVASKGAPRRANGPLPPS

Substance | activity at 100 µM [1] [%] | activity at 100 µM [2] [%] | activity at 100 µM [3] [%] | % activity [4] [%] | % activity ([1]; 100 μM) [%] | % activity [5] [%] | % activity [6] [%] | % activity ([2]; 100 μM) [%] | % activity [7] [%] | % activity [8] [%] | % activity [9] [%] | % activity ([3]; 100 μM) [%] | % activity [10] [%] | % activity [11] [%] | % activity [12] [%]
H-YARAAARQARAKALARQLGVAA-OH [MMI-0100] | 100 | 150 | 96 |  |  |  |  |  |  |  |  |  |  |  | 
HRRIKAWLKKIKALARQLGVAA (Mammalian) [MMI-0500] |  |  |  | 118 | 19 | 59 | 12 | 95 | 89 | 135 | 66 | 5 | 37 | 95 | 14
YARAAARQARAKALNRQLGVA (Mammalian) [MMI-0200] |  |  |  | 110 |  | 92 | 73 |  | 96 | 110 | 97 |  | 94 | 90 | 88
